The results in this text go back to US20260167731A1 (DOMAIN THERAPEUTICS, published 2026).

Values joined by “and” are separate entries in the source; they are usually repeats but may differ in a detail not shown here. Identical values can stand only once.

Test [1] has as its target T1, human CCR8 (human, UniProt P51685 1-355).
T1 construct: also called hCCR8; hCCR8_P51685
Put plainly: flow cytometry, hCCR8 transfected CHOK1 cells. As to the method: (§1) The same staining protocol was applied on human CCR8 transfected CHO cell line versus wild type CHO cell line, cutaneous T cell lymphoma HUT78 cell line and human activated T cell model.
(§2) Briefly, 1·10⁵ cells per well in a 96 well plate were incubated with a dilution of unconjugated anti-CCR8 mAb at 10 μg/mL then diluted at 1/3.33, 4 dilution points (during 30 min at 4° C.). In human activated T cells model, prior to mAb incubation, cells were first incubated with 200 nM of hCCL1 (R&D Systems, Minneapolis, MN, USA) or buffer PBS (Invitrogen by Thermofisher Scientific, Illkirch-Graffenstaden, France) supplemented by 2% Fetal Bovine Serum (Invitrogen by Thermofisher Scientific, Illkirch-Graffenstaden, France) and 2 mM EDTA (Invitrogen by Thermofisher Scientific, Illkirch-Graffenstaden, France) during 1 hour at 4° C. To determine EC50 value, 8 concentrations of anti-CCR8 mAb were tested. Unbound antibodies were washed away with PBS (Invitrogen by Thermofisher Scientific, Illkirch-Graffenstaden, France) supplemented by 2% Fetal Bovine Serum (Invitrogen by Thermofisher Scientific, Illkirch-Graffenstaden, France) and 2 mM EDTA (Invitrogen by Thermofisher Scientific, Illkirch-Graffenstaden, France). Subsequently, cells are centrifuged (5 min at 400 g) and bound antibody is detected with F(ab′)₂-Goat anti-Mouse IgG (H+L) Cross-Adsorbed Secondary Antibody, Alexa Fluor 488 (dilution 1/500) (Invitrogen by Thermofisher Scientific, Illkirch-Graffenstaden, France) or with F(ab′)₂-Goat anti-Human IgG Fc Secondary Antibody, PE (Invitrogen by Thermofisher Scientific, Illkirch-Graffenstaden, France) (dilution 1/1000) at 4° C. for 30 min. Detection reagent is washed away and cells are centrifuged (5 min at 400 g) and resuspended in 30 μL PBS. Bound detection antibody is quantified on a MacsQuant16 (Miltenyi, Gladbach, Germany) (B1 or B2 channel, 5000 events per acquisition). During the experiment, the respective isotype mAb controls (mouse IgG1, mouse IgG2a, mouse IgG2b, mouse IgG3 or human IgG1) (Biolegend, Amsterdam, The Netherlands) are included to exclude any unspecific binding events.

In test [2] the target is T1, human CCR8. Put plainly: flow cytometry, inhibition of hCCL1-AF647 binding to hCCR8 CHO cells. As to the method: The hCCR8 transfected CHO cell line was dispatched at a density of 1·10⁵ per well in a 96-well plate. Cells were incubated for 30 min at 4° C. with or without anti-CCR8 mAb tested at 10 μg/mL then diluted at 1/3. Unbound antibodies were washed away with PBS (Gibco, Villebon-sur-Yvette, France) supplemented by 2% Fetal Bovine Serum (Invitrogen by Thermofisher Scientific, Illkirch-Graffenstaden, France) and 2 mM EDTA. […] After washing unbound ligands, CCL1 bound detection is quantified on a MacsQuant16 (Miltenyi, Gladbach, Germany) (R1 channel, 5 000 events per acquisition).
For IC₅₀ determination, a concentration response curve is performed using 8 concentrations of mAb. Curves are fitted and IC₅₀ of CCL1 binding blocking activity is calculated using the sigmoidal dose-response (variable slope) model on GraphPad Prism 9 (GraphPad Software, San Diego, CA, USA).
A general note: In flow cytometry, cells or beads pass a laser one at a time.

The target of test [3] is T1, human CCR8. In words: cell-based or functional assay.
The target of test [4] is T1, human CCR8. Put plainly: cell-based or functional assay. This is another data set of the same source.
For test [5], the target named is T1, human CCR8. Put plainly: cell-based or functional assay. This is another data set of the same source.
For test [6], the target named is T1, human CCR8. In words: cell-based or functional assay. This is another data set of the same source.
The target in test [7] is T1, human CCR8. In words: flow cytometry, HUT78 cells (endogenous CCR8). As to the method: as §1, §2
EC50 values were determined via nonlinear fit “log(agonist)vs.response−Variable slope (four parameters)” function of Graphpad prism. EC50 values were not constantly determined in the same experiments.

The target in test [8] is T1, human CCR8. Put plainly: cell-based or functional assay. This is another data set of the same source.
The target in test [9] is pm5, modified CCR8 related peptide (human, sulfated tyrosines at Y15 and Y17). In words: ELISA on coated CCR8 peptide (500 ng/mL), OD [cont.]. An outline of the steps:
(§3)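 Peptides coated at 500 ng/mL in carbonate/bicarbonate buffer; anti-CCR8 mAbs applied at 1 μg/mL and a 1/10 dilution for 90 min at room temperature. After washing, TMB substrate was developed for 15 min and OD read as a measure of mAb reactivity.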
On the technique in general: In an ELISA, binding on a coated surface is turned into a signal by an enzyme label.

The target of test [10] is pm2, modified CCR8 related peptide (human, sulfated tyrosine at Y16). The test is described as above. An outline of the steps:
as §3

For test [11], the target named is pm1, modified CCR8 related peptide (human, sulfated tyrosine at Y15). The description is as above. An outline of the steps: as §3
Sequence of pm1, modified CCR8 related peptide (human, sulfated tyrosine at Y15) (peptide, as listed by the source): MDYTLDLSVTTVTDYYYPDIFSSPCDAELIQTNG
For test [12], the target named is pm6, modified CCR8 related peptide (human, sulfated tyrosines at Y16 and Y17). Described as above. In outline: as §3
Sequence of pm6, modified CCR8 related peptide (human, sulfated tyrosines at Y16 and Y17) (peptide, as listed by the source): as above
Test [13] concerns the target pm8, modified CCR8 related peptide (human, sulfated tyrosines at Y15, Y16 and Y17). The test is described as above. In outline:
as §3

Test [14] deals with T2, pwt1, unmodified CCR8 related peptide (human, none (non-sulfated Y15, Y16, Y17)).
T2 construct: First 34 amino acids of human CCR8, synthetic; also called unmodified peptide
T2 sequence (peptide, as listed by the source): as above
The description is as above. An outline of the steps: as §3

The target in test [15] is pm3, modified CCR8 related peptide (human, sulfated tyrosine at Y17). Described as above. An outline of the steps:
as §3

Test [16] deals with pm4, modified CCR8 related peptide (human, sulfated tyrosines at Y15 and Y16). The description is as above. An outline of the steps: as §3
Sequence of pm4, modified CCR8 related peptide (human, sulfated tyrosines at Y15 and Y16) (peptide, as listed by the source): as above
Test [17] concerns the target T3, hCCR8 SNAP-tag (human, UniProt P51685 1-355, SNAP-tag labelled with Lumi4-Terbium). Put plainly: cell-based or functional assay.
In test [18] the target is T3, hCCR8 SNAP-tag. Put plainly: HTRF Tag-lite, inhibition of hCCL1-AF647 binding to SNAP-tag hCCR8 on HEK-293. As to the method: The inhibition of CCL1 binding to hCCR8 was evaluated with the Tag-Lite® technology from Cisbio (Revvity). Human CCR8 is engineered with a SNAP-tag at the N-terminus of the GPCR. hCCR8 SNAP-tag is transiently transfected on HEK-293 cell line using FuGene® (Promega, Madison, WI, USA). 48 hours after transfection, cells are labeled with the substrate Lumi4-Terbium® (Cisbio, Codolet, France) which covalently reacts with the SNAP-tag, for 1 h at 37° C. […] The Kd is previously obtained in a saturation binding assay on the same cells. […] The plate is next incubated at 21° C. for 2 h. Detection of HTRF signal is performed on the multiplate reader EnVision (PerkinElmer, Waltham, MA, USA). The HTRF (665/620) ratio is calculated by EnVision software, the data exported are considered as the total binding. The specific binding is calculated then by subtracting the non-specific signal from the total binding. The Ki and IC₅₀are calculated using the “One site—Fit Ki” and “One site—FitlogIC50” from GraphPad Prism 9 (Graphpad Software, San Diego, CA, USA), respectively.
(Time-resolved FRET reads energy transfer from a long-lived donor to a nearby acceptor.)

Sequence of pm2, modified CCR8 related peptide (human, sulfated tyrosine at Y16) (peptide, as listed by the source): as above
Sequence of pm3, modified CCR8 related peptide (human, sulfated tyrosine at Y17) (peptide, as listed by the source): as above
Sequence of pm8, modified CCR8 related peptide (human, sulfated tyrosines at Y15, Y16 and Y17) (peptide, as listed by the source): as above
Sequence of pm5, modified CCR8 related peptide (human, sulfated tyrosines at Y15 and Y17) (peptide, as listed by the source): as above

B1: anti-CCR8 mAb 2-11 (antibody, V domains shown)
VH: EVQLQQSGPELVKPGASVKISCKASVYSFTGSYMHWVKQSHVKSLEWIGRINPYNGATSYNQNFKDKASLTVDKSSSTAYMELHSLTSEDSAVYYCATTLLRLLDYWGQGTTLTVSS
VL: DIVMTQAAFSNPVTLGTSASISCRSSKSLLHSNGITYLYWYLQKPGQSPQLLIYQMSNLASGVPDRFSSSGSGTDFTLRISRVEAEDVGVYYCAQNLELPWTFGGGTKLEIK
Take B1: in the test with human CCR8 [1], the “% positive cells” value came out at 34.7% and the “MFI fold change to isotype ctrl” value turned out to be 2.34 fold. Further, in the test with human CCR8 [2], the IC50 (usually the midpoint of a concentration-inhibition curve) was 6.41 µg/mL and 43 nM. Moreover, in the test with human CCR8 [3], the “IC50, CCL1 induced hCCR8 Gi2 signaling (BRET) at pH 6.5” value is 0.162 µg/ml and 1.08 nM; the “IC50, CCL1 induced hCCR8 Gi2 signaling (BRET) at pH 7.4” value was 0.152 µg/ml and 1.01 nM. Also, the “Top plateau values in presence of 5 µg/mL mAb (% of hCCL1 (100 nM)), protocol #3” value with human CCR8 [4] came out at 292%. The “IC50, CCL1 induced hCCR8 Gi2 signaling (BRET, HEK-293)” value in the test with human CCR8 [5] was 0.092 µg/mL and 0.616 nM. For the same molecule, in the test with human CCR8 [6], the “hCCL1 (100 nM) residual response in %, Protocol #2, mAb 0.08 µg/mL (0.53 nM)” value was 97%; the “hCCL1 (100 nM) residual response in %, Protocol #2, mAb 0.4 µg/mL (2.67 nM)” value worked out at 96%; the “hCCL1 (100 nM) residual response in %, Protocol #2, mAb 10 µg/mL (66.7 nM)” value is 84%; the “hCCL1 (100 nM) residual response in %, Protocol #3, mAb 0.05 µg/mL (0.33 nM)” value is 96%. Also, in the test with human CCR8 [6], the “hCCL1 (100 nM) residual response in %, Protocol #3, mAb 0.5 µg/mL (3.33 nM)” value came out at 81% and the “hCCL1 (100 nM) residual response in %, Protocol #3, mAb 5 µg/mL (33.3 nM)” value was 73%.

B2: humanized anti-CCR8 mAb 2-14 (antibody, human IgG1, kappa, V domains shown)
VH: QVQLVQSGPEVVKPGASVKVSCKTSGYTFTEYTIHWVRQAPGQSLEWVGGINPNNGNTRYDQKFQGRVTITRDKSASTAYMELRSLTSEDTAVYYCARVARSSGSGPYAMDYWGQGTTVTVSS
VL: DVVMTQSPLSLPVTLGDQASISCRCSQSLLHTNGDTYLHWYLQRPGQSPRLLIYKVSNRFSGVPDRFSGSGSGTDFTLKISRVEAEDVGVYFCSQSTHVPYTFGGGTKVEIKR
notes: Humanized, human IgG1 / kappa
In the case of B2, the “% of labelled cells” value with human CCR8 [7] stood at 96%. Besides, in the test with human CCR8 [5], the “IC50, CCL1 induced hCCR8 Gi2 signaling (BRET, HEK-293)” value is 0.022 µg/mL and 0.147 nM. For the same molecule, in the test with human CCR8 [8], the “ADCC % Max lysis, HUT78 targets, NK cells Donor 3” value came out at 15%; the “ADCC % Max lysis, HUT78 targets, NK cells Donor 4” value turned out to be 16%; the “ADCC EC50, HUT78 targets, NK cells Donor 3” value stood at 0.505 nM; the “ADCC EC50, HUT78 targets, NK cells Donor 4” value turned out to be 0.573 nM. Also, in [9], the binding result is listed as “binds”. Also, the binding result in test [10] is on record as “binds”. Besides, the binding result in test [11] is given as “binds”. Further, the binding result in test [12] is recorded as “binds”. For the same molecule, the binding result in test [13] was “binds”. Moreover, the binding result in [14] is recorded as “binds”. The binding result in [15] is given as “binds”. Besides, the binding result in [16] is recorded as “binds”. Moreover, in the test with hCCR8 SNAP-tag [17], the “% of internalization at 1 µg/ml (CCL1 at 300 nM = 100%), HTRF” value amounted to 44% and the “% of internalization at 10 µg/ml (CCL1 at 300 nM = 100%), HTRF” value stood at 29%. Besides, in the test with human CCR8 [6], the “hCCL1 (100 nM) residual response in %, Protocol #2, mAb 0.08 µg/mL (0.53 nM)” value was 67%; the “hCCL1 (100 nM) residual response in %, Protocol #2, mAb 0.4 µg/mL (2.67 nM)” value was found to be 55%; the “hCCL1 (100 nM) residual response in %, Protocol #2, mAb 10 µg/mL (66.7 nM)” value is 32%; the “hCCL1 (100 nM) residual response in %, Protocol #3, mAb 0.05 µg/mL (0.33 nM)” value was determined as 86%. In addition, in the test with human CCR8 [6], the “hCCL1 (100 nM) residual response in %, Protocol #3, mAb 0.5 µg/mL (3.33 nM)” value came to 60% and the “hCCL1 (100 nM) residual response in %, Protocol #3, mAb 5 µg/mL (33.3 nM)” value worked out at 42%. In addition, in the test with hCCR8 SNAP-tag [18], the IC50 is 0.04 µg/mL and the affinity corresponds to a Ki of 0.02 µg/mL.
